Results taken from publication PMC12005789, “Geniposidic Acid Targeting FXR “S332 and H447” Mediated Conformational Change to Upregulate CYPs and miR‐19a‐3p to Ameliorate Drug‐Induced Liver Injury” (Advanced Science, 2025).
Positions count from the first letter of the chain named. Ends that are not written are not given here.

T1: Farnesoid X receptor (FXR) (Homo sapiens, UniProt Q96RI1)
T1 construct: gene NR1H4; human FXR LBD (residues 248–486), N-terminal 8×His-Tag
T1 sequence (Q96RI1 248-486): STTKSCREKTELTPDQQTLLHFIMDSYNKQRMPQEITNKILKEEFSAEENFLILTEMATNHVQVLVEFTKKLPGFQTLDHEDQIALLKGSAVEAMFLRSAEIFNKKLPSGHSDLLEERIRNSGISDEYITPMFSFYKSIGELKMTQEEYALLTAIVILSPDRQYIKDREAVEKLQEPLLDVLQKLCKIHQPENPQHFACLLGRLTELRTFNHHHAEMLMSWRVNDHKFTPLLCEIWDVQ

T2: human FXR LBD wild-type recombinant protein (human)
T2 chain: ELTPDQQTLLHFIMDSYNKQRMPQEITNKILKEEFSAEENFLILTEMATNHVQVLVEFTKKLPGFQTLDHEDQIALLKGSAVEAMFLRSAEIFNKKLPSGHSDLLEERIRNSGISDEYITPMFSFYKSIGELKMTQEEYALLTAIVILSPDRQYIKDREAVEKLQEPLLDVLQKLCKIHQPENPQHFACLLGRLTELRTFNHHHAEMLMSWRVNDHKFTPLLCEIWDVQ

T3: human FXR LBD H447A recombinant protein (human)
T3 chain: T2 chain with H204A


Tests used:
[1] = biological target: T1, Farnesoid X receptor (FXR); test: SPR (Biacore T200, CM5 chip with FXR LBD WT); supported by DSF, CETSA and AlphaScreen; type: binding
[2] = biological target: T2, human FXR LBD wild-type recombinant …; test: SPR; with GPA
[3] = biological target: T3, human FXR LBD H447A recombinant protein; test: SPR; with GPA
[4] = biological target: T2, human FXR LBD wild-type recombinant …; test: SPR; with GW4064

Row | Kd [1] | Kd [2] | Kd [3] | Kd [4] | Molecule
1 | 390 nM | – | – | – | O=C(O)C1=CO[C@@H](O[C@@H]2O[C@H](CO)[C@@H](O)[C@H](O)[C@H]2O)[C@@H]2C(CO)=CC[C@H]12 [GPA, Geniposidic acid]
2 | – | 533 nM | 355000 nM | 185 nM | QEPVSPKKKENALLRYLLDKDDTKD (also: biotinylated (position not given here)) [SRC2-3 biotinylated cofactor peptide]
